This is an account of results in FireProtDB (doi:10.1021/bi0268697).

Sequences and labels used below:
B1: Barstar, P11540 (parent)
chain: MKKAVINGEQIRSISDLHQTLKKELALPEYYGENLDALWDCLTGWVEYPLVLEWRQFEQSKQLTENGAESVLQVFREAKAEGCDITIILS

Where “and” joins values, the source holds several entries; their conditions need not be identical. Equal values may be shown once.

Variants of B1 are the subject of this data set. To be noted: Bacillus amyloliquefaciens; pH 8; 25 °C; Urea; CD; Tris 20 mM; reversible: yes; structure 1BTA; whole UniProt chain shown.

As for W39F W45F C41A C83A A26C, the “denaturant midpoint (higher = more stable)” value (shortened to “denaturant midpoint”) was 3.5 M and 3.4 M; the unfolding free energy was 4.4 kcal/mol and 4.3 kcal/mol.
On to W39F W45F S13T C41A, for which the “denaturant midpoint” value was 3.4 M and 3.5 M; the unfolding free energy came to 4.5 kcal/mol.
As to W39F W45F C41A C83A L63C, the “denaturant midpoint” value was found to be 3.3 M and the unfolding free energy was found to be 4 kcal/mol.
For W39F W45F C83A, the “denaturant midpoint” value is 3.3 M and 3.7 M; the unfolding free energy is 4.2 kcal/mol and 4.7 kcal/mol.
